Measured values taken from publication PMC3562352.
Like-named read-outs stand apart in the source and are kept apart here.

Experiments:
Test in all cases: fluorescence anisotropy
[1] = target: T1, MntR E11K (Bacillus subtilis, UniProt P54512 1-142, E11K)
T1 sequence: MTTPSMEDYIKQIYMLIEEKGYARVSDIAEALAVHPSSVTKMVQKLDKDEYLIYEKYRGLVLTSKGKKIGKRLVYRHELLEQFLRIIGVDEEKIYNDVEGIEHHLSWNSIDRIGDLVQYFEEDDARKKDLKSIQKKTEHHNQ

[2] = target: T2, MntR wild-type (Bacillus subtilis, UniProt P54512 1-142)
T2 sequence: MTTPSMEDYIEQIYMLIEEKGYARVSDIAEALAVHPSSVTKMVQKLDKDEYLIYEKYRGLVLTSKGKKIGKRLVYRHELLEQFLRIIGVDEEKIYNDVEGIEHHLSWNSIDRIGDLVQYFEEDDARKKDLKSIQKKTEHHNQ

[3] = target: T1, MntR E11K; remark: listed apart in the source
[4] = target: T2, MntR wild-type; remark: listed apart in the source

B1: mntH operator 21 bp (dsDNA)
DNA 1: GAGTTTCCTTAAGGCAAATTG
DNA 2: CAATTTGCCTTAAGGAAACTC
B1 was tested, and the Kd [1] was 6.5 ± 1.3 nM, the Kd [2] was 5.6 ± 0.8 nM and the Kd [3] was 2.4 ± 0.1 nM. The Kd [4] was 6.5 ± 0.5 nM.
